Laboratory results published in patent US5559019A, “Protein serine kinase, SRPK1” (The Regents of the University of California, priority 1994, dated 1996).

Substrate: Nc1ncnc2c1ncn2[C@@H]1O[C@H](COP(=O)(O)OP(=O)(O)OP(=O)(O)O)[C@@H](O)[C@H]1O
Test: SRPK1 kinase assay, determination of Km for ATP (double-reciprocal plots, SF2/ASF as substrate)
Format: biochemical, human
Details: other: ATP titrated against four SF2/ASF concentrations (bacterially expressed SF2/ASF as substrate), pH 7.4, 30.0 °C
Method: FIG. 7 describes the kinetic properties of SRPK1. […] Different ATP concentrations were titrated against four SF2/ASF concentrations (.diamond-solid.0.05 μM; .circle-solid.0.1 μM; Δ0.05 μM; .diamond.0.7 μM). […] Five SF2/ASF concentrations (0.05 μM, 0.1 μM, 0.25 μM, 0.5 μM, and 1.0 μM) and four MBP concentrations (2.5 μM, 5.0 μM, 12.5 μM, and 25 μM) were used in the phosphorylation reactions. Saturating ATP (100 μM) and SRPK1 (27,000 units) were used in these reactions.
0.5 μg of purified SC35 or SF2/ASF was used as a substrate in a final volume of 20 μl kinase assay mixture containing 50 mM Tris-pH7.4, 10 mM MgCl2, 1 mM DTT, 2 μM ATP, and 2 μCi [^32 P-]ATP. The reaction was initiated by adding 2 μl of each column fraction and incubated at room temperature for 15 min. Proteins were, resolved in a 12.5% SDS gel. After staining and autoradiography, gel slices containing radioactive proteins were quantitated in a liquid scintillation counter. For saturation phosphorylation of SF2/ASF, 100 μM ATP was used, and the reaction was carried out at 30° C. for 2 hours.
SRPK1 is specific for splicing factors containing an SR domain as shown in EXAMPLE 4. Kinetic analyses were carried out to further characterize the kinase. […] The kinase activity depended on ATP concentration with a Km for ATP of 10 μM (FIG. 7A). […]

B1: SRPK1 (SR protein-specific kinase, 92 kD) purified from Hela cell S100 extracts, SEQ ID NO:2 (Homo sapiens) (protein)
chain: MERKVLALQARKKRTKAKKDKAQRKSETQHRGSAPHSESDLPEQEEEILGSDDDEQEDPNDYCKGGYHLVKIGDLFNGRYHVIRKLGWGHFSTVWLSWDIQGKKFVAMKVVKSAEHYTETALDEIRLLKSVRNSDPNDPNREMVVQLLDDFKISGVNGTHICMVFEVLGHHLLKWIIKSNYQGLPLPCVKKIIQQVLQGLDYLHTKCRIIHTDIKPENILLSVNEQYIRRLAAEATEWQRSGAPPPSGSAVSTAPQPKPADKMSKNKKKKLKKKQKRQAELLEKRMQEIEEMEKESGPGQKRPNKQEESESPVERPLKENPPNKMTQEKLEESSTIGQDQTLMERDTEGGAAEINCNGVIEVINYTQNSNNETLRHKEDLHNANDCDVQNLNQESSFLSSQNGDSSTSQETDSCTPITSEVSDTMVCQSSSTVGQSFSEQHISQLQESIRAEIPCEDEQEQEHNGPLDNKGKSTAGNFLVNPLEPKNAEKLKVKIADLGNACWVHKHFTEDIQTRQYRSLEVLIGSGYNTPADIWSTACMAFELATGDYLFEPHSGEEYTRDEDHIALIIELLGKVPRKLIVAGKYSKEFFTKKGDLKHITKLKPWGLFEVLVEKYEWSQEEAAGFTDFLLPMLELIPEKRATAAECLRHPWLNS
notes: SRPK1 PURIFICATION FROM HELA CELL S100 EXTRACTS; endogenous in cells; host or cells: HeLa cells (S100 extract; phosphocellulose P11, Phenyl Sepharose, Mono Q, Mono S)
Km: 10 µM
